Measured values published in patent US20240317884A1, “METHOD FOR ALLOWING IMMUNE CELLS INFILTRATION IN TUMORS” (Alethia Biotherapeutics Inc., priority 2021, published 2024).
“Also recorded” adds a separate entry of the source.

Key:
[1] = test system: E-cadherin, vimentin; assay: Phase I: immunohistochemistry on paired tumor biopsies (epithelial phenotype); assay type: in vivo, human
Description: Immunohistochemistry studies were conducted on paired tumor biopsies to determine if the treatment with AB-16B5 was associated with a reacquisition of an epithelial phenotype.

[2] = test system: CA 15-3, CA-125, CA 19-9, CEA, LDH and PSA; assay: Phase I: circulating tumor biomarkers; assay type: in vivo, human
Description: Several well-established circulating biomarkers were evaluated to monitor the response to therapy. They included CA 15-3, CA-125, CA 19-9, CEA, LDH and PSA.

[3] = Phase I: detection of AB-16B5 in tumor biopsies; assay type: in vivo, human; details: for Detection of AB-16B5 in Tumor Biopsies, Post-Treatment Biopsy: 12.0 mg/kg, after dosing on Cycle 2 Day 15
From the text: Tumor biopsies were collected during the standard dose escalation to investigate the presence of AB-16B5 within the tumor. A total of 4 pre-treatment and 5 post-treatment tumor biopsies were suitable for analysis. These post-treatment tumor biopsies were collected following dosing on Cycle 2 Day 15 (between Cycle 2 Day 15 and Cycle 2 Day 18). The biopsy sites were liver (n=2), lymph node (n=2), bladder, skin and vulva.

[4] = Non-clinical pharmacokinetics, single and repeat-dose, monkeys; assay type: in vivo; details: Rhesus monkeys
From the text: There was an approximate 70% increase in systemic exposure following repeated dosing from Day 1 to Day 26 which is consistent with the elimination half-life of AB-16B5 and the dosing intervals. […] The sCLU concentrations were generally back to their baseline levels after 3 to 5 days. The concurrent decrease in sCLU concentrations immediately following dosing with AB-16B5 is consistent with an antigen-sink phenomenon.

Question: Which “E-cadherin Expression in Post-Treatment” value ([1]; Subject 006, Breast, biopsy site Skin, 9.0 mg/kg) does the source give for “AB-16B5: humanized IgG2 monoclonal antibody targeting sCLU; light chain SEQ ID NO:11, heavy chain SEQ ID NO:12” here?
Answer: Its value is “Increase”.

Question: What about the “E-cadherin Expression in Post-Treatment” value ([1]; Subject 007, Gastric, biopsy site Gastric, 9.0 mg/kg) of the same substance?
Answer: Its value is “Increase”.

Question: What about the “vimentin expression after treatment” value ([1]; Subject 007, advanced gastric cancer, paired tumor biopsies) of the same substance?
Answer: The value was “loss of vimentin expression”.

Question: And the “E-cadherin Expression in Post-Treatment” value ([1]; Subject 012, Breast, biopsy site Skin, 12.0 mg/kg)?
Answer: The value was “Decrease”.

Question: And the “E-cadherin Expression in Post-Treatment” value ([1]; Subject 013, Prostate, biopsy site Bladder, 12.0 mg/kg)?
Answer: Its value is “did not change; also recorded: No change”.

Question: What about the “tumor biomarker levels over time” value ([2]; CA 15-3, CA-125, CA 19-9, CEA, LDH and PSA, correlated with disease progression) of the same substance?
Answer: The value was “increased over time”.

Question: What about the “level of CEA” value ([2]; in few patients) of the same substance?
Answer: Its value is “remained stable or decreased”.

Question: And the “presence of AB-16B5 in all pre-treatment tumor biopsies” value ([3]; 4 pre-treatment biopsies, baseline)?
Answer: Its value is “negative”.

Question: And the “presence of AB-16B5 in all post-treatment tumor biopsies analyzed” value ([3]; 5 post-treatment biopsies)?
Answer: Its value is “confirmed”.

Question: What about the “Detection of AB-16B5 in Tumor Biopsies, Post-Treatment Biopsy” value (shortened to “Detection … Post-Treatment Biopsy”) ([3]; Subject 009, Lung, biopsy site Liver) of the same substance?
Answer: The value was “Positive”.

Question: What about the “Detection … Post-Treatment Biopsy” value ([3]; Subject 010, Colorectal, biopsy site Liver) of the same substance?
Answer: Its value is “Positive”.

Question: What about the “Detection of AB-16B5 in Tumor Biopsies, Pre-Treatment Biopsy” value (“Detection … Pre-Treatment Biopsy” for short) ([3]; Subject 011, Colorectal, biopsy site Lymph node, baseline) of the same substance?
Answer: The value was “Negative”.

Question: What about the “Detection … Post-Treatment Biopsy” value ([3]; Subject 012, Breast, biopsy site Skin) of the same substance?
Answer: Its value is “Positive”.

Question: What about the “Detection … Pre-Treatment Biopsy” value ([3]; Subject 012, Breast, biopsy site Skin, baseline) of the same substance?
Answer: The value was “Negative”.

Question: And the “Detection … Post-Treatment Biopsy” value ([3]; Subject 013, Prostate, biopsy site Bladder)?
Answer: Its value is “Positive”.

Question: What about the “Detection … Pre-Treatment Biopsy” value ([3]; Subject 014, Vulvar melanoma, biopsy site Vulva, baseline) of the same substance?
Answer: The value was “Negative”.

Question: What about the “Detection … Post-Treatment Biopsy” value ([3]; Subject 015, Ovarian, biopsy site Lymph node) of the same substance?
Answer: The value was “Positive”.

Question: And the “Detection … Pre-Treatment Biopsy” value ([3]; Subject 015, Ovarian, biopsy site Lymph node, baseline)?
Answer: Its value is “Negative”.

Question: What about the “systemic exposure with increasing dose levels” value [4] of the same substance?
Answer: Its value is “generally greater than dose proportional”.

Question: And the “drug accumulation in terms of Cmax” value ([4]; repeated dosing once or twice weekly)?
Answer: Its value is “no evidence of drug accumulation”.
